Results on 5 molecules are retold here after patent US20170247475A1 (Boehringer Ingelheim, published 2017).

Assay [1] concerns the target T1, hAng2.
T1 construct: also called human Ang2
T1 chain: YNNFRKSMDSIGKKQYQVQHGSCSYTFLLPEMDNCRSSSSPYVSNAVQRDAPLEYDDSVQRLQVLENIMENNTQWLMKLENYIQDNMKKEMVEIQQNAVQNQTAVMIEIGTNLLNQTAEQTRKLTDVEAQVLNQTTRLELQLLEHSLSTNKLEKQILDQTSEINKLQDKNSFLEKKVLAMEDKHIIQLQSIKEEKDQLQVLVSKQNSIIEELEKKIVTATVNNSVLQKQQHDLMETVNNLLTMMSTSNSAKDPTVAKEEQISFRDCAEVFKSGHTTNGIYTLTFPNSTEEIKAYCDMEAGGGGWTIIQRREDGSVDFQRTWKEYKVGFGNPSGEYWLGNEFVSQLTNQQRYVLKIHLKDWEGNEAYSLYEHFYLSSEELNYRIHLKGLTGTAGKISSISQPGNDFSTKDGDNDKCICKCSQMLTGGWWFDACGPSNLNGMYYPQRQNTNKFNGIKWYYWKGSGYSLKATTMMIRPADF
Kind of assay: competition ELISA, blocking of hAng2 binding to hTie2. (In general: ELISA stands for enzyme-linked immunosorbent assay.)

The target in assay [2] is T2, mAng2.
T2 construct: also called mouse Ang2
T2 chain: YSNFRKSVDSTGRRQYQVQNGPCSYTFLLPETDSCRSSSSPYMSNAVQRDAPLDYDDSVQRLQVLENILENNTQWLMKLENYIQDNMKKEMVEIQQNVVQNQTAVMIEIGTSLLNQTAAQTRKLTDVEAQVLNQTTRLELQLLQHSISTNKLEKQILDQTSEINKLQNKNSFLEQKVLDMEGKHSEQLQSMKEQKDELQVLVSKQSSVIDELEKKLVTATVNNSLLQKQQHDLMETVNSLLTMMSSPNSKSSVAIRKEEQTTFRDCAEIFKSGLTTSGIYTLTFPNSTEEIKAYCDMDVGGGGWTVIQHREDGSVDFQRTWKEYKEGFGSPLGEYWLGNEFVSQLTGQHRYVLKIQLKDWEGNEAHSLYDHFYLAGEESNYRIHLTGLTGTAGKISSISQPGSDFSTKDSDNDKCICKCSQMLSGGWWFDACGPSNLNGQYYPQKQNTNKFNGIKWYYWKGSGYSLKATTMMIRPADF
Kind of assay: competition ELISA, blocking of mAng2 binding to mTie2.

In assay [3] the target is T3, cAng2 (cynomolgus monkey).
T3 construct: also called cyno Ang2
In words: competition ELISA, blocking of cAng2 binding to cTie2.

The target in assay [4] is T4, hAng2.
T4 chain: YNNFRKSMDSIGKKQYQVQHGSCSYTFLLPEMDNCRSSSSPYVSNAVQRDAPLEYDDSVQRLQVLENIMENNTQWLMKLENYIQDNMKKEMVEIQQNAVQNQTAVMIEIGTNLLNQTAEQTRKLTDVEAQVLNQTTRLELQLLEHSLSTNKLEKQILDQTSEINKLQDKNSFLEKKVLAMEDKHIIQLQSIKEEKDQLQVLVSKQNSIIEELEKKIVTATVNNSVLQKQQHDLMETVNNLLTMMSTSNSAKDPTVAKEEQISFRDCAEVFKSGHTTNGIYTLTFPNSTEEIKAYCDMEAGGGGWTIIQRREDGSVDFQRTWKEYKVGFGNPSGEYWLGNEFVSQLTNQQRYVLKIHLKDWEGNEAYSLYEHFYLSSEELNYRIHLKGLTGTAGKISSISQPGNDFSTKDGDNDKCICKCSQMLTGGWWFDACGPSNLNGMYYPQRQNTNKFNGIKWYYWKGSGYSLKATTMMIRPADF
In words: cell-based or functional assay.

Assay [5] addresses T4, hAng2. In words: competition ELISA, blocking of hAng2 binding to hTie2-Fc.
Assay [6] addresses T5, mAng2.
T5 construct: may be the same protein as m22 (mouse Ang2-FLD); also called mouse Ang2
T5 chain: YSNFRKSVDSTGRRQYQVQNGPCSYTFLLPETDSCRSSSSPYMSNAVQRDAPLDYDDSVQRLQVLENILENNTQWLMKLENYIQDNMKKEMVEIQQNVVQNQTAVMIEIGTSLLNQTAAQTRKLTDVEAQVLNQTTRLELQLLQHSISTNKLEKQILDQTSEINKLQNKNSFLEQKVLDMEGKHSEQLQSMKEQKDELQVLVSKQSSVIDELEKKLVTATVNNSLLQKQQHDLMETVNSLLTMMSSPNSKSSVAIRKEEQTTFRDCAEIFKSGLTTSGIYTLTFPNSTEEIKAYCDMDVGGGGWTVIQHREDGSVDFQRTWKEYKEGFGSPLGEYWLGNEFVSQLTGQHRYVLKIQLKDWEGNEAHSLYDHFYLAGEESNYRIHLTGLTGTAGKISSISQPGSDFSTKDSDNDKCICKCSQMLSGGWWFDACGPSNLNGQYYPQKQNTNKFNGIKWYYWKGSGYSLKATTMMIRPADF
Kind of assay: competition ELISA, blocking of mAng2 binding to mTie2-Fc.

Assay [7] has as its target T6, cAng2 (cynomolgus monkey).
T6 construct: may be the same protein as m21 (cyno Ang2-FLD); also called cyno Ang2
In words: competition ELISA, blocking of cAng2 binding to cTie2-Fc.

Assay [8] deals with T7, hAng2.
T7 construct: also called human Ang2
T7 chain: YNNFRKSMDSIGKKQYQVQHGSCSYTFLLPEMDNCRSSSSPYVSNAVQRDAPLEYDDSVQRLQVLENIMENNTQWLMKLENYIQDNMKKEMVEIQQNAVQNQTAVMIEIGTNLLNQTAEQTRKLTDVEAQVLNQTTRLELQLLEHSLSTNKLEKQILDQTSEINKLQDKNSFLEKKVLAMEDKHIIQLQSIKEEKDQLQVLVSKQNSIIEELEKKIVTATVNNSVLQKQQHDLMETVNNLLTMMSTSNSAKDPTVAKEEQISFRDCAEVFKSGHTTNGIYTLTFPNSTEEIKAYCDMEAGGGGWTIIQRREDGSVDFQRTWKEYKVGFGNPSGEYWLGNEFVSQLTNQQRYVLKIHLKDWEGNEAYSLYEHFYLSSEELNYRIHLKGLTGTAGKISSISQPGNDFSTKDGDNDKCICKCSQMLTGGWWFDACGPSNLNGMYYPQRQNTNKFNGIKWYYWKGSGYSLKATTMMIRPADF
In words: competition ELISA hAng2/hTie2-Fc; blocked: hTie2-Fc. As for the experimental part: The human assay is also performed after incubation of the VHH with 0.5 μM human serum albumin. Additionally, a hAng2 mediated HUVEC survival assay is performed (see Example 5.5; FIG. 29).

Assay [9] addresses T4, hAng2. In words: cell-based or functional assay.
The target of assay [10] is T4, hAng2. Kind of assay: competition ELISA, blocking of hAng2 binding to hTie2-Fc.
For assay [11], the target named is T5, mAng2. Kind of assay: competition ELISA, blocking of mAng2 binding to mTie2-Fc.
The target in assay [12] is T6, cAng2. In words: competition ELISA, blocking of cAng2 binding to cTie2-Fc. This is another data set of the same source.
Assay [13] has as its target T7, hAng2. Kind of assay: competition ELISA hAng2/hTie2-Fc; blocked: hTie2-Fc.
Assay [14] addresses T8, mAng2.
T8 construct: also called mouse Ang2
T8 chain: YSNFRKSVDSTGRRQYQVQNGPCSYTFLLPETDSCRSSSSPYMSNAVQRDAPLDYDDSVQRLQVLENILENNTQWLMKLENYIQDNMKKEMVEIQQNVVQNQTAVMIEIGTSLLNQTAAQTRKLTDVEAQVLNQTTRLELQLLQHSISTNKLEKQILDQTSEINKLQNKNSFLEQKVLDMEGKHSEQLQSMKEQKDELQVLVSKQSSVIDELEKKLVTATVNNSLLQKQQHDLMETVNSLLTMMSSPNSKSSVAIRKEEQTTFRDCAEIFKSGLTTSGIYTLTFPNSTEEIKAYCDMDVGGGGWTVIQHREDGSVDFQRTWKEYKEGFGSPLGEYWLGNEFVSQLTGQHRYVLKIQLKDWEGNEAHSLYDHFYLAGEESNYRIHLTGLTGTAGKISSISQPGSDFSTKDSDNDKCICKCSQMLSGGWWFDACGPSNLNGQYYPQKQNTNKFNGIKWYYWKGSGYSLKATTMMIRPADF
Kind of assay: competition ELISA mAng2/mTie2-Fc; blocked: mTie2-Fc.

Assay [15] addresses T8, mAng2. The assay is described as above.
Assay [16] addresses T8, mAng2. The description is as above.
The target of assay [17] is T9, cAng2 (cynomolgus monkey).
T9 construct: construct not given; also called cyno Ang2
In words: competition ELISA cAng2/cTie2-Fc; blocked: cTie2-Fc.

The target of assay [18] is T9, cAng2. Described as above. The source holds these as a separate data set.
For assay [19], the target named is T9, cAng2. The assay is described as above. This is another data set of the same source.

Where two headings read alike, the source gives them in different places.

B1: 00908 (VHH)
VHH: EVQLVESGGGLVQPGGSLRLSCAASGITLDDYAIGWFRQAPGKEREGVSSIRDNGGSTYYADSVKGRFTISSDNSKNTVYLQMNSLRPEDTAVYYCAAVPAGRLRYGEQWYPIYEYDAWGQGTLVTVSS
notes: also called F009100908
For the molecule B1, the “IC50 (read off the curve)” value with hAng2 [1] is about 0.04 nM; with mAng2 [2] it was about 0.1 nM; with cAng2 [3], about 0.08 nM.

B2: 00956 (VHH)
VHH: EVQLVESGGGLVQPGGSLRLSCAASGFTLDDYAIGWFRQAPGKEREGVSAIRSSGGSTYYADSVKGRFTISSDNSKNTVYLQMNSLRPEDTAVYYCAAVPAGRLRFGEQWYPLYEYDAWGQGTLVTVSS
As to B2, the “IC50 (read off the curve), hAng2 mediated HUVEC survival” value with hAng2 [4] was about 6 nM. In addition, the entries for the “IC50 (read off the curve)” value with hAng2 [5], in the assay with mAng2 [6] and with cAng2 [7] were about 1 nM, about 3 nM and about 2 nM, respectively.

B3: 7G08 (VHH)
VHH: EVQLVESGGGLVQPGGSLRLSCAASGFALDYYAIGWFRQVPGKEREGVSCISSSDGITYYVDSVKGRFTISRDNAKNTVYLQMNSLKPEDTAVYYCATDSGGYIDYDCMGLGYDYWGQGTQVTVSS
Turning to B3, the “IC50 (read off the curve)” value with hAng2 [8] is about 0.1 nM.

B4: 00921 (VHH)
VHH: EVQLVESGGGLVQPGGSLRLSCAASGFTFDDYALGWFRQAPGKEREGVSCIRCSGGSTYYADSVKGRFTISSDNSKNTVYLQMNSLRPEDTAVYYCAASIVPRSKLEPYEYDAWGQGTLVTVSS
Take B4: the “IC50 (read off the curve), hAng2 mediated HUVEC survival” value with hAng2 [9] is about 30 nM. Further, the “IC50 (read off the curve)” value with hAng2 [10] is about 20 nM; with mAng2 [11], about 30 nM; with cAng2 [12], about 50 nM.

B5: 1D01 (VHH)
VHH: EVQLVESGGGLVQAGGSLRLSCAASGFTFDDYALGWFRQAAGKEREGVSCIRCSDGSTYYADSVKGRFTISSDNAKNTVYLQMNSLKPEDTAVYYCAASIVPRSKLEPYEYDAWGQGTQVTVSS
As for B5, the “IC50 (read off the curve)” value with hAng2 [13] was about 8 nM; with mAng2 [14], about 10 nM; with mAng2 [15], about 10 nM; in the assay with mAng2 [16], about 10 nM; in the assay with cAng2 [17], about 10 nM; with cAng2 [18], about 10 nM. Also, the “IC50 (read off the curve)” value with cAng2 [19] is about 10 nM.
